Among the targets are WT1 ZF2-4 Q369H (-KTS) (Homo sapiens, UniProt P19544-4 350-437, Q369H); WT1 ZF2-4 Q369K (-KTS) (Homo sapiens, UniProt P19544-4 350-437, Q369K); WT1 ZF2-4 Q369P (-KTS) (Homo sapiens, UniProt P19544-4 350-437, Q369P); Egr1 three-finger domain (UniProt P18146 335-423).
What all share (assay): fluorescence polarization
A general note: In fluorescence polarisation assays a small probe gives low polarisation when free and higher when bound to something large.

For data set [1], the target named is T1, WT1 ZF2-4 Q369R (-KTS) (Homo sapiens, UniProt P19544-4 350-437, Q369R).
Data set [2] concerns the target T1, WT1 ZF2-4 Q369R (-KTS). This is another data set of the same source.

Bounds are passed on as bounds.

B1: Fig1 oligo X=G (dsDNA)
DNA 1: AGCGTGGGGGT
DNA 2: TACCCCCACGC
modifications: 5mC at strand 1 pos 3 and strand 2 pos 9
A word on the Kd: it is the equilibrium constant for the complex coming apart. For B1, the Kd with WT1 ZF2-4 Q369R (-KTS) [1] was 24 nM; in the data set with WT1 ZF2-4 Q369H (-KTS), under 3 nM; in the data set with WT1 ZF2-4 Q369K (-KTS), 14 nM.

B2: Fig1 oligo X=A (dsDNA)
DNA 1: AGCGTGGGAGT
DNA 2: TACTCCCACGC
modifications: 5mC at strand 1 pos 3 and strand 2 pos 9
In the data set with WT1 ZF2-4 Q369H (-KTS), B2 displayed a Kd of 8 nM. In addition, in the data set with WT1 ZF2-4 Q369R (-KTS) [2], the binding signal is ~5 fold lower affinity than X=G.

B3: Fig1 oligo X=T (dsDNA)
DNA 1: AGCGTGGGTGT
DNA 2: TACACCCACGC
modifications: 5mC at strand 1 pos 3 and strand 2 pos 9
B3: the binding result with WT1 ZF2-4 Q369P (-KTS) and with Egr1 three-finger domain was “binds” each time.

The values are drawn from article PMC5137435.
